Test results from the supplement of paper PMC10567573.
± gives the standard deviation.

Assay: protein stability index of a GFP-peptide fusion (GPS, HEK-293T) (PSI 1-6); higher = more stable
Settings: c terminus: a fixed tail appended
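Also: 24-mer peptide tiles fused after GFP, lentivirally expressed, FACS-sorted into six equal bins by GFP/DsRed ratio, decoded by Illumina sequencing, PSI is the read-weighted mean bin number.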

Sequence	protein stability index (treatment: DMSO)	protein stability index (treatment: MLN4924 1 uM, 8 h)
RFIRERDRAVNDYPSLYYPEMYIL [CDC25B]	2.49 ± 0.53	1.91 ± 0.29
KSLEIEEKINKIKWLPQQNAAHSL [PPP2R2C]	3.66 ± 0.21	3.67 ± 0.13
QIVLLKSSAIEVIMLRSNESFTMD [VDR]	2.6 ± 0.7	2.44 ± 0.4
EGIKVEDLLFIVDTMLEEVENKEK [CEP70]	3.07 ± 0.27	3.03 ± 0.42
LIVGRIAIGVSISLSSIATCVYIA [SLC2A12]	3.09 ± 0.45	3.01 ± 0.39
YRDYGHSRRDESYSRGYRNRRSSR [RBMY1A1]	4.75 ± 0.14	4.79 ± 0.12
GDQEGPRPARSTLDELLGRGMATK [FBF1]	4.62 ± 0.27	4.73 ± 0.11
RTPLHYAAANCHFHCIETLVTTGA [ANKRD44]	2.36 ± 0.57	2.44 ± 0.5
GATVGRKSRRSRSESETSTMAAKK [C18orf25]	5.23 ± 0.31	5.48 ± 0.27
YRSLGSVQAPSYGARPVSSAASVY [KRT18]	3.33 ± 0.23	3.17 ± 0.097
LSMLLTLKCEMNQMSGEPLDKLNF [ACSBG2]	2.83 ± 0.46	2.29 ± 0.16
YRGAVYADSGNFKRCINLWKYALD [FEM1C]	2.32 ± 0.08	2.33 ± 0.18
QELLDTVLVNLVPAHKNLNKQAYD [PDS5B]	2.95 ± 0.34	3.02 ± 0.3
DTETFTWSQPITTGKAPSPRAAHA [KLHDC2]	4.31 ± 0.082	4.41 ± 0.51
EPLMTNKLSETFLQIYQYVPKDQR [DLC1]	3.05 ± 0.33	3.47 ± 0.47
SLLDVQRVPSFESFEDDCSQSLCL [ETS2]	3.9 ± 0.53	3.67 ± 0.54
DPNINPTIGASFMTKTVQYQNELH [RAB22A]	4.29 ± 0.31	4.19 ± 0.23
PKPAGGAIPTKKSLPSPSSSGHQN [FBF1]	4.98 ± 0.14	4.92 ± 0.17
QGQPVVNRPLSLKDQQTFARSVGL [TRADD]	3.67 ± 0.35	3.9 ± 0.12
NGTRVQEEPELVFTLGDCDVIQAL [FKBP8]	3.72 ± 0.28	3.83 ± 0.17
EDLEWERYRGRGSEEYRAPRPQSE [CHGB]	5.19 ± 0.38	5.33 ± 0.23
SMFTLPVVYVKHQAQIDQYLGLVR [RTN1]	2.5 ± 0.49	2.23 ± 0.41

Sequence	protein stability index (treatment: DMSO)	protein stability index (treatment: MLN4924 1 uM, 8 h)
VSSAVSPSIIPQEDPSQQFLQQSL [INTS4]	4.2 ± 0.24	4.41 ± 0.083
LYPSAPILGGSGPVRKLYDDCSST [ESRRG]	3.82 ± 0.3	3.72 ± 0.24
LVHIVCHKKTTHKLNCDPSRIYKP [DFFB]	2.41 ± 0.11	1.96 ± 0.41
AAPGKQPGRGHTHAAQGGPLLCPG [ELOA2]	4.09 ± 0.31	4.31 ± 0.26
PVRCAGDWLPRGLGWGGRGAAVCA [ALG2]	2.57 ± 0.36	2.25 ± 0.27
EGHLDDGGYTPDLKMSYSRGLIPV [RBMY1A1]	3.25 ± 0.14	3.15 ± 0.38
KVSQWWERLTKQEKRPLFLAPDFD [HACD3]	2.34 ± 0.31	2.55 ± 0.089
IYNSNIFTDPFFIVETLCIIWFSF [KCNA1]	3.23 ± 0.2	3.17 ± 0.29
LVYHPVQLSTPHAVGVLLLGLVGY [DHCR7]	3.5 ± 0.77	3.08 ± 0.23
VQTWTQPRLCYLVKEGGSYGFSLK [PDZK1]	2.13 ± 0.24	2 ± 0.33
AKINIVYQELNYRSVEEAPVYSVP [SCNN1D]	2.17 ± 0.14	2.15 ± 0.45
AAKLLNVDPDNVVLCLLAADEDDD [GADD45A]	3.68 ± 0.16	3.94 ± 0.27
IIEELGEQRDQLERTKSRLVNTSE [VTI1B]	4.57 ± 0.41	4.63 ± 0.15
EEPSKYGVVVCEADTGRIHRFVEK [GMPPB]	3.94 ± 0.32	3.99 ± 0.18
QFHKQIAVMRGQILNLTQALKDNK [PI4K2A]	2.5 ± 0.36	2.8 ± 0.35
PPPLGPVVPVLVFPPDLVFRADQR [MOSPD3]	3.25 ± 0.13	3.22 ± 0.32
SGLIEIQSYPLCIYLINQKWFGRK [SLC22A15]	2.47 ± 0.59	2.19 ± 0.2
STTNSTAAKPAASITSKPATLTTT [ZNF207]	4.39 ± 0.25	4.41 ± 0.081
SSCSSTSGGGGGGGGGGGGGKSGG [CCDC6]	5.17 ± 0.065	5 ± 0.51
DTFQKELMCFDPDTDKWIQKAPMT [KLHL13]	4.16 ± 0.28	3.87 ± 0.15
VISLEKLNVGNERYVFEAVIRWIA [GAN]	2.38 ± 0.38	2.09 ± 0.29
NGRKIMGKEVKVNWATTPSSQKKD [TIA1]	4.43 ± 0.077	4.55 ± 0.22
